The binders below were run against F-actin from rabbit back muscle (rabbit, UniProt P68135 1-377) (assay: SPR).

Maximum Signal (Δpm)	koff [s⁻¹]	kon [M⁻¹ s⁻¹]	Binder
397 Δpm	0.0278	4150	SKTRGKAKVTGRWK (peptide, UniProt P45379-6 275-288, looked up)
112 Δpm	0.0172	1570	SKTRGKAKVTGCWK (peptide, UniProt P45379-6 275-288, looked up) [Human cTnT-C14 peptide containing HCM-linked mutation R286C]
144 Δpm	0.0169	1450	SKTCGKAKVTGRWK (peptide, UniProt P45379-6 275-288, looked up) [Human cTnT-C14 peptide containing HCM-linked mutation R278C]
112 Δpm	0.0415	3810	SKTRGNAKVTGRWK (peptide, UniProt P45379-6 275-288, looked up) [Human cTnT-C14 peptide containing HCM-linked mutation K280N]

Each binder was assayed against Rabbit cardiac α-tropomyosin (rabbit, UniProt P58772 1-284) (assay: SPR).

Maximum Signal (Δpm)	koff [s⁻¹]	kon [M⁻¹ s⁻¹]	Binder
420 Δpm	0.0374	5910	SKTRGKAKVTGRWK (peptide, UniProt P45379-6 275-288, looked up)
114 Δpm	0.0166	3110	SKTRGKAKVTGCWK (peptide, UniProt P45379-6 275-288, looked up) [Human cTnT-C14 peptide containing HCM-linked mutation R286C]
95.4 Δpm	0.0219	2500	SKTCGKAKVTGRWK (peptide, UniProt P45379-6 275-288, looked up) [Human cTnT-C14 peptide containing HCM-linked mutation R278C]
108 Δpm	0.0351	6600	SKTRGNAKVTGRWK (peptide, UniProt P45379-6 275-288, looked up) [Human cTnT-C14 peptide containing HCM-linked mutation K280N]

What follows are binders tested against F-actin-Tm composite thin filament (rabbit, UniProt P68135 1-377; P58772 1-284) (assay: SPR).

Maximum Signal (Δpm)	koff [s⁻¹]	kon [M⁻¹ s⁻¹]	Binder
434 Δpm	0.0362	5270	SKTRGKAKVTGRWK (peptide, UniProt P45379-6 275-288, looked up)
126 Δpm	0.0256	3850	SKTRGKAKVTGCWK (peptide, UniProt P45379-6 275-288, looked up) [Human cTnT-C14 peptide containing HCM-linked mutation R286C]
134 Δpm	0.02	3930	SKTCGKAKVTGRWK (peptide, UniProt P45379-6 275-288, looked up) [Human cTnT-C14 peptide containing HCM-linked mutation R278C]
109 Δpm	0.041	6450	SKTRGNAKVTGRWK (peptide, UniProt P45379-6 275-288, looked up) [Human cTnT-C14 peptide containing HCM-linked mutation K280N]
